Data on 41 sequences can be found in the nanobody polyreactivity screen of Harvey et al. (2022).

A short description of this data set: yeast display, Sf9 membrane polyspecificity reagent, FACS + sequencing; frameworks hold sequencing errors. The gist of the method:
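Polyreactivity labels are assigned by the sorting gate from which each nanobody was recovered. The gates were low and high (top ~1%), set on anti-HA fluorescence for expression and streptavidin fluorescence for reagent binding. Before sorting, galactose-induced (36–48 hours) yeast display cells were stained for 1 hour at 4 °C with 10% biotinylated, detergent-solubilized Sf9 membrane reagent.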
Consider “QVQLVESGGGLVQAGGSLRLSCAASGSIIGYYTMGWYRQAPGKEREFVAAISWSGGSTYYADSVKGRFTISRDNAKNTVYLQMNSLKPEDTAVYYCNADVYWEYDYCGQGTQVTVSS”, for which the “polyreactivity (PSR sort gate)” value is listed as “low polyreactivity”.

Take “QVQLEESGGGLVQAGGSLRLSCAASGRIFYRYAMGWYRQAPGKERELVAAISSGGSTYYADSVKGRFTISRDNAKNTVYLQMNSLKPDDTAVYYCAATWGRGTYYLYYYWGQGTQVTVSS”: the “polyreactivity (PSR sort gate)” value is “high polyreactivity”.

For the sequence “QLHLVESGGGLVQAGGSLRLSCAASGRSFGLNALGRSRQAHGKERELVAVISFGDGGTYYADSVKGRFTISLDNAKNTVYLQMNSLKPEDTAVYYCATDYQSTSVWGGHFVINPYDYWGQGTKVTVSS”, the “polyreactivity (PSR sort gate)” value is “low polyreactivity”.

With “QVQLVESVGGLVQAGGSLRLSCAASGITFSLYAAMGWYRQAPGKERELVAAISWRGGNTYYADSVKGRFTISRDNAKNTVYLQMNSLKPEDTAVYYCAARRTNLPVNFYYWGQGTQVTVSS”, the “polyreactivity (PSR sort gate)” value is “high polyreactivity”.

On to “QVQLVESGGGLVQAGGSLRLSCAASGYTFTINAMGWYRQAPGKERELVAAISWNGGRTYYADSVKGRFTISRDNAKNTDYVQMNSLQPEDTAVCYCNADTYSAGDYWGQGTQVTVSS”, for which the “polyreactivity (PSR sort gate)” value was “high polyreactivity”.

As for “QVQLVESGGGLVQAGGSLRLSCSASGRNFWFYAKGWYRQAPGKERELVAAISSGGSTNYADSVKGRFTISRDNAKNTVYLQMNSLKPEDTAVYYCAKVGNIPYGTRYYSNRYDYWGQGTLVTVSS”, the “polyreactivity (PSR sort gate)” value is “low polyreactivity”.

As for “QVQLVESGGGLVQAGGSLRLSCAASGFIFYVNDMGWYRQAPGKERELVADISGGTSTNYADSVKGRFTMSRDNAKNTVYLQMNSLNPEDTAVYYCNKYVAYDYWGQGTQVTVSS”, the “polyreactivity (PSR sort gate)” value was “low polyreactivity”.

With “QVQLVESGGGLVQAGGSLRLSCAASGRTFPGYAMGWYRQAPGKERELVAGISYRGGSTYYADSVKGRFTISRDIAKNTVYLQMNSLKPEDTAVYYCAREYSRHKGDYWGQGTQVTVSS”, the “polyreactivity (PSR sort gate)” value is listed as “low polyreactivity”.

Regarding “QVQLVESGGGLVQAGGSLRLSCAASGRIFGHYAMGWYRQAPGKEMELVAAITIGGSTYYADSVKGRFTISRDNAKNTVYLQMNSLKPEDTAVYYCAKVGSNYRGRLGYWGQGTQVTVSS”, the “polyreactivity (PSR sort gate)” value is recorded as “low polyreactivity”.

Consider “QVQLVESGGGLVQAGGSLRLSCAASGIISIFNVMGWYRQAPGKERELVASITGRGGSTFYADSVKGRFTISRDNAKNTVYLQMNSLKPEDTAVYYCATDTGYTYPVTGLYDYWGQGTQVTVSS”, for which the “polyreactivity (PSR sort gate)” value is “low polyreactivity”.

In the case of “QVQLVESGGGLVQAGGSLRLSCAPSGFTFRRNAMGWYRQAPGKERELVAVITSSARTNYADSVKGRFTISRDNAKKTVYLEMNSLKPEDTAVYYCAARYHYGVWRERHGYWGQGTKVTVSS”, the “polyreactivity (PSR sort gate)” value is reported as “high polyreactivity”.

Take “QVQLVESGGGLVQEGGSLRLSCAASGRIFYNYPMGWYRQAPGKEREFVAAISGSGGSTYYADSVKGRFTISRDIAKNTVYLQMKSLKPEDTAVYYCSTSGPQYYSRNFDYWGQGTQVTVSS”: the “polyreactivity (PSR sort gate)” value was “low polyreactivity”.

For the sequence “QVQLVESGGGLVQAGGSLRLSCAASGRTLTGNAMGWYRQAPGKERELVAAISWSAGSTYYADSVKGRFTISRDNAKNTVYLQMNSLKPEDTAVYYCALTLRRNLVRMGYWGLGTQVTVSS”, the “polyreactivity (PSR sort gate)” value is on record as “high polyreactivity”.

For the sequence “QVQLVESGGGLVHAGCSLRLSCAATGIIFAWYVMGWYRPAPGKERELVAAITQSGGSTFYADSVKGRFTISRDNAKNTVYLQMNSLKPEDTAVYYCNTEDFFNVPEMDSWGQGTQVTVSS”, the “polyreactivity (PSR sort gate)” value is reported as “low polyreactivity”.

With “QVQLVETGGGLVQAGGSLRLSCAASGFTFNNYAMGWYRQAPGTERELVAAISWSGGRTYYPDSVMGRFTISSDNAKNTVYLQMNSLNTEDTAVYYCAADFSGSVDYWGQGTQVTVSS”, the “polyreactivity (PSR sort gate)” value is “high polyreactivity”.

As to “QVQLVESGGGLVQAGGSLRLSCAPSGRTFVYYAMGWYRQAPGKERELVASISSGGGSTNYADSVKGRFTISRDNAKNTVYLQMNSLKPEDTAVYYCAVDTPRYRYYRTSYDYWGQGTQGTVSS”, the “polyreactivity (PSR sort gate)” value was “low polyreactivity”.

Regarding “HVQLVDSGGGLVQAGGSLRLSCAASGFIFRRYAMGWYRQAPGKERELVAAIRSDGSTNYADSVKGRFTISRDNAKNTVYLQLNSLKPEDTAVYYCAATYYSYTWFSQYYYWGQGTQVTVSS”, the “polyreactivity (PSR sort gate)” value is given as “high polyreactivity”.

As for “QVQLVESGGGLVQAGGSLRLSCAASGFIYPYYAMGCYIQAPGKETELVAGISKSGGRTTYADSVKGRFTISRDNAKNTVYLQMNSLKPEDTAVYYCAAVYRAFPIYEDDYWGQGTQVTVSS”, the “polyreactivity (PSR sort gate)” value was “high polyreactivity”.

Take “QVQLVESGGGLVQAGGSLRLSCAASGRTFGYYAMGWYRQAPGKERELVAAISSSGGSTYYADSVKGRFTISRDNAKNTVYLQMNSLKPEDTAVYYCAARFANGGGYWGQGTQVTVSS”: the “polyreactivity (PSR sort gate)” value was “high polyreactivity”.

As to “QVQLVESGGGLVQAGGSLRLSCAASGIIFNYNAMGWYRQAPGKERELVATISSGDSTNYADSVKGRFTISRDNAKNTVYLQMNSLKPEDTAVYYCAAESPSVFDGYAQLYIILEDYWGQGTQVTVSS”, the “polyreactivity (PSR sort gate)” value was “low polyreactivity”.

For “QVQLVESGGGLLQAGGSLRLSCAASGYTFWLYAMGWYRQAPGKDRELVATISRRAGTTYYADSVKGRFTISRDNAKNTVYLQMNSLKPEDTAVYYCAKKSHSLLGQYGEDYDYWGQGTQVTVSS”, the “polyreactivity (PSR sort gate)” value was “low polyreactivity”.

Consider “QVKLVESGGGLVQAGGSLRLSCAASGGIFSPNAMGWYRHAPGKERELVAAISSNGGSTNYADSVKGRFTISRDNAKNTVYLQMNSLKPEDNAVYYCAKVYRSIGPNVSRYGLSYYYWGQGTQVTVSS”, for which the “polyreactivity (PSR sort gate)” value is “low polyreactivity”.

On to “QVQLVESGVGLVQAGGSLRLSCAASGRIFRRYVMGWYRQAPGKEREFVAAITSRGGRTYYADSVKGRFTISRDNAKNTVYLQMNSLKPEDTAVYYCAARYSRSMDYWGQGTQVTVSS”, for which the “polyreactivity (PSR sort gate)” value was “high polyreactivity”.

Turning to “EVQLGESGGGLVQAGGSLRLSCAASGSTFNTNAMGWYRQAPGKERELVAAISWSSTRTYYADSVKGRFTISRDNAKNTVYLQINSLKPEDTAVYYCAGRSVGGRYFKGNYWGHGTQVTVSS”, the “polyreactivity (PSR sort gate)” value is reported as “high polyreactivity”.

For “QVQLVESGGGLVQAGGSLRLSCAGSGGIIGSNAMGWYRQAPGKERELVAAINTRGGRTYYADSVKWRFTISRDNAKNTVYLQMNILKPEDTAVYYCATVSYSSRRDRYDYWGQGTQVTVSS”, the “polyreactivity (PSR sort gate)” value is reported as “high polyreactivity”.

As to “QVQLVESGGGLVQAGGSLRLSCAASGRIIAYYAMGWYRQAPGKERELVAAISRRGGSTYYADSVKGRFTISRDNAKNTVYLQMNSLKPEDTAVYYCDTLTLESFSALYYWGQGTQVTVSS”, the “polyreactivity (PSR sort gate)” value is “low polyreactivity”.

“QVQLVESGGGLVQAGGSLRLSCAASGSTIGPYAMGWYRQAPGKERELVAAITESGDSTYYADSVKGRFTISRDTAKNTVYLQMNSLKPEDTAVYYCAADVYGDKMDYWGQGTQVTVSS”: the “polyreactivity (PSR sort gate)” value is given as “low polyreactivity”.

Turning to “QVQLVESGGGLVQAGGSLRLSCAASGSIFYDNAMGWYRPAPGKERELVATIRGGGNTYYADSVKGRFTISRDNAKNTVYLQMNSLKPEDTAVYYCSKQSDFPGVPLVYGVYGYDYWGQGTQVTVSS”, the “polyreactivity (PSR sort gate)” value was “low polyreactivity”.

For “QVQLVESGGGLVQAGGSLRLSCAASGLTIRRYVMGWYRQAPGKERELVAAINWNGGSTYYADSVKGRFTISRDNAKNTVYLQMNSLKPEDTAVYYCAARSTYVYDYNYWGQGTQVTVSS”, the “polyreactivity (PSR sort gate)” value is “high polyreactivity”.

Take “QVQLVESGGGLVQAGGSLRLSCAASGYIFQDYAMGWYRQAPAKERELVARISAGGGRTYYADSVKGRFTISRENAMNTVYLQMNSLKPEDTAVYYCAAPLSYSWVYIVRYGYDYWGQGTQVTVSS”: the “polyreactivity (PSR sort gate)” value is “low polyreactivity”.

With “QVQLEESRGGLVQAGGSLRLSCAASGRIFPVYVMGWDRQAPGKERELVAAINYNGGSTTDADSVKGRFTISRDNAKNTVDLQMNSLKPEDTAVYYCAKVGVLGYYTYYYWGQGIQVTVSS”, the “polyreactivity (PSR sort gate)” value is reported as “low polyreactivity”.

As to “QVQLVESGGALVQAGGSLRLSCAASGSTFRKYSMGWYRQAPGKERELVAVITKSGGSTYYADSVKGRFTISRDNAKNTVYLQMNSLKPEDTAVYYCAARRGGARHDYWGQGTQVTVSS”, the “polyreactivity (PSR sort gate)” value is “high polyreactivity”.

Take “QVQLVESGGGLVQAGGRLRLSCAASGRTFLRYAMGWYRQAPGKERELVAAISVSGGNTYYADSVKGRFTISRDNAKNTVYLQMNSLKPEDTAVYYCNKARLAAVFSYPYGYWGQGTQVTVSS”: the “polyreactivity (PSR sort gate)” value is reported as “low polyreactivity”.

“QVQLQESGGGLVQADGSLRLSCAASGSIIGYYYMGWYRQAPGKDRELVATINNCGITNYADSVKGLFTISRDNAKNTVYLQMNSLKPDDTAVYYCAADEYAQRDLGYWGQGTQVTVSN”: the “polyreactivity (PSR sort gate)” value is “low polyreactivity”.

Regarding “QVQLVESGGGLVQAGGSLRVSCAASGRSFWTDTMGWYRQAPGKEREFVAAITFGDGSTSYADSVKGRFTISRDNAKNTVYLQMNSLKPEDTAVYYCAKRWRRRFVDVWSLYDYWGQGTQVTVSS”, the “polyreactivity (PSR sort gate)” value was “low polyreactivity”.

Turning to “QVQLVESGGGLVQAGGSLRLSCAASGRTCYNTMGWYRQSPGKERELVAAISRGGITNYADSVKGRFTISRDNAKNTVYLQMNSLKPADTAVYYCIAEPKRYYYYYKFDYWGQGTQVTVSS”, the “polyreactivity (PSR sort gate)” value was “high polyreactivity”.

As to “QVQLVESGGGLVQAGGSLRLSCAASGFTFRKYAMGWYRQAPGKERELVADISGGTGSTYYADSVKGRFTISRDNAKNTDYLHMNSLKPEDTAVYYCNAEGWYYLTEYGYWGQGTQLTVSS”, the “polyreactivity (PSR sort gate)” value is “low polyreactivity”.

As to “QVQLVESGGGLVQAGGRLRLTCAASGSIFLEYTMGWSRQAPGKEREVVASISWGGGSTYYADSVKGRFTISRDNAKNTVYLQMNSLKPEDTAVYYCAAVTKLSGIRYNYWGQGTQVTVSS”, the “polyreactivity (PSR sort gate)” value is listed as “low polyreactivity”.

Consider “QVQLVESGGGLVQAGGSLRLTCAASGSTFYSYVMGWYRQAPGKERELVAAIDYSGDSTYYADSVKGRFTISRDNAKNTVYLQMNSLKPEDTAVYYCAKDGVWYYSGTGMDYWGHGTQVTVSS”, for which the “polyreactivity (PSR sort gate)” value is “low polyreactivity”.

For the sequence “QVQLVESGGGLVQAGGSLRLSCAASGSTFRGYVMGWYRQAPGKERELVAAITWGGGRTYYADSVKGRFTISRDNAKNTVYLQMNSLKPEDTAVYYCAARVRGQGSYQFGYWGQGTQVTVSS”, the “polyreactivity (PSR sort gate)” value is on record as “high polyreactivity”.

As to “QDQLVESGGALVQAGGSLRLSCAASGFTYYGNAMGWYRQAPGKERELVAAISSSGGITYYADSVKGRFTISRDNAKNTVYLQMNSLKPEDTAVYYCAAVQGTPDYEYDSWGQGTQVTVSS”, the “polyreactivity (PSR sort gate)” value is listed as “low polyreactivity”.
